Article PMC5625841 (Cell, 2017)

Experiments:
[1] = biological target: taxol-stabilized microtubules; assay: single-molecule TIRF binding density on microtubules
cryo-EM structure = biological target: the molecule itself; assay: cryo-EM structure
[2] = biological target: Dyn^wt-M, monomeric S. cerevisiae cytoplasmic dynein construct lacking GST, wild type AAA3 (S. cerevisiae) (UniProt P36022); assay: cryo-EM structure
[3] = biological target: Dyn^WB-M, monomeric S. cerevisiae dynein construct with a Walker B mutation in AAA3 (S. cerevisiae); assay: cryo-EM structure

Chain of Dyn^wt-M, monomeric S. cerevisiae cytoplasmic dynein construct lacking GST, wild type AAA3 (S. cerevisiae) (P36022 whole entry): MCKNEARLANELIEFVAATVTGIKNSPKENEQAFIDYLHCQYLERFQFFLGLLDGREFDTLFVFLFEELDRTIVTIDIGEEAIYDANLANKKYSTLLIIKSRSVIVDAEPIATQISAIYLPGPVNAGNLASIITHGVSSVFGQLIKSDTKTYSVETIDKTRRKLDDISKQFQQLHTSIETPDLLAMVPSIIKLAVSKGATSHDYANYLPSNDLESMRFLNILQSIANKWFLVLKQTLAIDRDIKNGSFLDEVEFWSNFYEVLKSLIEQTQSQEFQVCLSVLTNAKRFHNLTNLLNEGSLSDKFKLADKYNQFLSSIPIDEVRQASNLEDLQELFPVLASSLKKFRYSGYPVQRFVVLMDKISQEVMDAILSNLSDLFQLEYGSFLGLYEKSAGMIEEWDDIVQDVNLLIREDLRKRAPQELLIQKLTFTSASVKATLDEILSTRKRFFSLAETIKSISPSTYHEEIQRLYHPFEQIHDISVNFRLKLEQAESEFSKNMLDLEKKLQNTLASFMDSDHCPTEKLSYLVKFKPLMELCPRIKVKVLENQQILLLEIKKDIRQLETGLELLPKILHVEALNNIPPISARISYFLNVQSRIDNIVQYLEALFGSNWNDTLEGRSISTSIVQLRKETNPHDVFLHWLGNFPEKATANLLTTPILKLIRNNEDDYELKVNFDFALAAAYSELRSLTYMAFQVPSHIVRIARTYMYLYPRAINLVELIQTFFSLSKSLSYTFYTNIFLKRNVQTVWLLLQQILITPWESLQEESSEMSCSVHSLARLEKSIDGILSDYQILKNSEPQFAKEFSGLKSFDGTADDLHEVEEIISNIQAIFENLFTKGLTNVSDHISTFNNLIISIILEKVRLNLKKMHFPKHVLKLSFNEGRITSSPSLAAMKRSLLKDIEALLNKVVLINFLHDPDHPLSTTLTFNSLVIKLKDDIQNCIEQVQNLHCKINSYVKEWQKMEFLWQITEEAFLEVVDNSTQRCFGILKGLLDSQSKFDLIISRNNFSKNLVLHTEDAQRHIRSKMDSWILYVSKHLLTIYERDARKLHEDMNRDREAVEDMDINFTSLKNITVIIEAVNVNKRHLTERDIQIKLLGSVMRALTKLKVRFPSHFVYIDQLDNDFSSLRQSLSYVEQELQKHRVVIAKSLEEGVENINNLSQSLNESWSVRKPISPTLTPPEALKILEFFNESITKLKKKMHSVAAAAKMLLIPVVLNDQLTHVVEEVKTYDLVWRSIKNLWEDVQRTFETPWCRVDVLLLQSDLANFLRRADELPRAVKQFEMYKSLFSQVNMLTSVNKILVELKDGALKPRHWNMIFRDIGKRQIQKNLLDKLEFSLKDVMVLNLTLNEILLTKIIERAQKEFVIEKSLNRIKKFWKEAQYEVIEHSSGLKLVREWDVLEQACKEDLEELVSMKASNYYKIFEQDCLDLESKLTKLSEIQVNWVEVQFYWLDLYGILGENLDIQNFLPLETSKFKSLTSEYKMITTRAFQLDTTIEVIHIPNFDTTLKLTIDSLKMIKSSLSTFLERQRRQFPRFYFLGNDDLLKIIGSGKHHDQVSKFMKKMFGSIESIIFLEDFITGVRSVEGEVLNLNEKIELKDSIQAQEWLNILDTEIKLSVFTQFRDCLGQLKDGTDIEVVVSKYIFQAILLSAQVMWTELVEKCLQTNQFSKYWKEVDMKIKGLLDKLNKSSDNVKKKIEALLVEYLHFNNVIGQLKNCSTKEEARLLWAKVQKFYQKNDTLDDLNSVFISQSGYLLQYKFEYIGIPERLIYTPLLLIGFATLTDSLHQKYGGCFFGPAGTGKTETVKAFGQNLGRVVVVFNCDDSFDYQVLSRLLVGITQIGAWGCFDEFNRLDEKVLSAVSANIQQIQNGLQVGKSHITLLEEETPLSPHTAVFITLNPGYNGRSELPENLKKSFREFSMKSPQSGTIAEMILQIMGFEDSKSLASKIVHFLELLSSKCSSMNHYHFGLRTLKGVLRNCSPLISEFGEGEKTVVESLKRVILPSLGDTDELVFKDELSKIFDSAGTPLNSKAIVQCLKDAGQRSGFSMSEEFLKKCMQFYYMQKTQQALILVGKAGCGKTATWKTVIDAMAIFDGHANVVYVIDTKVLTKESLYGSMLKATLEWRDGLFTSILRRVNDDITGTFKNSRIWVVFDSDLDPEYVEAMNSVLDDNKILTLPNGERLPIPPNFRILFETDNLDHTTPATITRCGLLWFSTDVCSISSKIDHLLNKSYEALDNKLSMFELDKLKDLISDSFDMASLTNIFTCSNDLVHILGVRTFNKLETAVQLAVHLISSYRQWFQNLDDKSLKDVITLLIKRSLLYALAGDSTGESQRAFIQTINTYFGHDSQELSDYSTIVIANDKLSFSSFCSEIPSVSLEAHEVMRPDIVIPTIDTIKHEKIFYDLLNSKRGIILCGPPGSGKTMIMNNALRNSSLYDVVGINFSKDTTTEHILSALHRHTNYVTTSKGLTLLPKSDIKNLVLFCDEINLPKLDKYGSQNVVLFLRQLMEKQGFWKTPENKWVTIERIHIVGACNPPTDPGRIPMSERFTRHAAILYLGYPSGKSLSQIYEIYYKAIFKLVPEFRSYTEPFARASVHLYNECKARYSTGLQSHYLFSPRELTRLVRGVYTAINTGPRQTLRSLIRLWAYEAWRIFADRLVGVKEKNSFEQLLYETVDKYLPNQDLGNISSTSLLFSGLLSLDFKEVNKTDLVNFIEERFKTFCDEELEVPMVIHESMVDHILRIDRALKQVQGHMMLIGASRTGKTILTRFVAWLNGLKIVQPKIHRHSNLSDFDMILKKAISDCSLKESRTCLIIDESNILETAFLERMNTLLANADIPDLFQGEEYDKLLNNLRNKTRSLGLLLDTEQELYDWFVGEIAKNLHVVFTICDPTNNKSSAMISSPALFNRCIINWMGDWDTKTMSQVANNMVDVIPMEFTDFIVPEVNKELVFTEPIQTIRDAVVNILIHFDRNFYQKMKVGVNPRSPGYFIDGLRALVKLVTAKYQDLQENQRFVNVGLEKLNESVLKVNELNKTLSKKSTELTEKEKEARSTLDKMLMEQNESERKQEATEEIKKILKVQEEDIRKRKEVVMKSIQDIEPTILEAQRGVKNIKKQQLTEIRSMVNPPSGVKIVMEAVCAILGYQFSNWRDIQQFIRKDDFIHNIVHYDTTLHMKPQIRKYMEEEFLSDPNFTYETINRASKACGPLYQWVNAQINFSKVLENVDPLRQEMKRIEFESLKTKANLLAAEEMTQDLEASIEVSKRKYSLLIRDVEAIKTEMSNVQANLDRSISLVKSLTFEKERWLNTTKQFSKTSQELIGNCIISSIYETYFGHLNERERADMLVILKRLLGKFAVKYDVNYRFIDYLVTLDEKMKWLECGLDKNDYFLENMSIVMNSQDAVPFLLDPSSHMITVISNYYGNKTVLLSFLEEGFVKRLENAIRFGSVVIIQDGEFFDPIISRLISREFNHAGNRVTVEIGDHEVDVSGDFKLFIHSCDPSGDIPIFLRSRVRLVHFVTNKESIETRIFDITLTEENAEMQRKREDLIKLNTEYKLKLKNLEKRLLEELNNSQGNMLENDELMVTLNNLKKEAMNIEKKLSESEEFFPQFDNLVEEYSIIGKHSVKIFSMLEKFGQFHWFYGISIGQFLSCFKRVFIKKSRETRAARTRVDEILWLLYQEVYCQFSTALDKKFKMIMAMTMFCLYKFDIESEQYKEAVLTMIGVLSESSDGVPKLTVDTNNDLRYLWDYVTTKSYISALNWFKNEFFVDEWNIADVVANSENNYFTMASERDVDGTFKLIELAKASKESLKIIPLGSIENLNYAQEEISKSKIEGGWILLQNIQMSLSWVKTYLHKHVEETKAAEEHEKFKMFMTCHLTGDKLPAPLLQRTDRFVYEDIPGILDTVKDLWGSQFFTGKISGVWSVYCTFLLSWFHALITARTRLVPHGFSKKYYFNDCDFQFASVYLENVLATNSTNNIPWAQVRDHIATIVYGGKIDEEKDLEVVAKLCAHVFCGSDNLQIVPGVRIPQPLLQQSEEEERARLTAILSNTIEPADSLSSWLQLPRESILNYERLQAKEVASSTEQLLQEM

For “Dyn^WB, GST-dimerized S. cerevisiae dynein construct with a Walker B mutation in AAA3 (domain or fragment)”, the decrease of binding density on MTs with 300 nM Lis1 against no Lis1 [1] was 42%.

“Dyn^WA, GST-dimerized S. cerevisiae dynein construct with a Walker A mutation in AAA3 (domain or fragment)” gave an increase of binding density on MTs with 300 nM Lis1 against no Lis1 [1] of 62%.

B1: Lis1 (S. cerevisiae), dimer (natural protein, UniProt P39946 1-494, looked up)
chain: MTNWQQQLPLTDTQKNELDKSVLRYLNWNYKQTVRHEHAQDYESVRHAIVTLSGFLLQESVDRQEFISNNDTSNESMVDIDELLLPKKWNSIVRLQKKIIELEQNTETLVSQIKDLNTQVSELAQFKPTTSNGTSAHNVLKWIPRNLPSCLINVESSVTSVKLHPNLPIVFVATDHGKLYAFDLFNYTIPLASLQSHTKAITSMDVLFTNYTNSSKKNYLVIVTASKDLQIHVFKWVSEECKFQQIRSLLGHEHIVSAVKIWQKNNDVHIASCSRDQTVKIWDFHNGWSLKTFQPHSQWVRSIDVLGDYIISGSHDTTLRLTHWPSGNGLSVGTGHEFPIEKVKFIHFIEDSPEIRFRTPSTDRYKNWGMQYCVSASRDRTIKIWEIPLPTLMAHRAPIPNPTDSNFRCVLTLKGHLSWVRDISIRGQYLFSCADDKSVRCWDLNTGQCLHVWEKLHTGFVNCLDLDVDFDSNVTPRQMMVTGGLDCKSNVFMR
B1 was tested, and the binding result (cryo-EM structure) was “binds”, the stoichiometry N (Lis1 β-propeller per dynein) [2] was 1 and the stoichiometry N (Lis1 β-propellers per dynein) [3] was 2.
